Target: SARS-CoV-2 spike receptor binding domain (SARS-CoV-2, UniProt P0DTC2)
Assay: cryo-EM structure

B1: REGN10985 Fab (Fab, V domains shown)
VH: EVQLVESGGGLVQPGRSLRLSCAASGFTFDDYAMHWVRQAPGKGLEWVSGISWNRGSIGYADSVKGRFTISRDNAKNSLYLQMSSLRAEDTALYYCAKDGERWDSVVVPSARNGMDVWGQGTTVTVSS
VL: QSVLTQPPSVSGAPGQRVTISCTGSSSNIGAGYDVHWYQQLPGTAPKLLIYGNSNRPSGVPDRFSGSKSGTSASLAITGLQAEDEADYYCQSYDSSLSGSYVFGTGTKVTVL
Does B1 bind?
Result: binds

B2: REGN10989 Fab (Fab, V domains shown)
VH: QVQLVQSGAEVKKPGASVKVSCKASGYIFTGYYMHWVRQAPGQGLEWMGWINPNSGGANYAQKFQGRVTLTRDTSITTVYMELSRLRFDDTAVYYCARGSRYDWNQNNWFDPWGQGTLVTVSS
VL: QSALTQPASVSGSPGQSITISCTGTSSDVGTYNYVSWYQQHPGKAPKLMIFDVSNRPSGVSDRFSGSKSGNTASLTISGLQAEDEADYYCSSFTTSSTVVFGGGTKLTVL
Does B2 bind?
Result: binds

From article PMC8179113 (Cell, 2021)
